Earlier results in PMC4980809.

Biological target: titin ZR7 (Homo sapiens) (UniProt Q8WZ42)
Sequence (Q8WZ42 692-740): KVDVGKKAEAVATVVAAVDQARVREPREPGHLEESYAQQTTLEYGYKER

Sequence of alpha-actinin-2 EF3/4 domain (P35609 823-894): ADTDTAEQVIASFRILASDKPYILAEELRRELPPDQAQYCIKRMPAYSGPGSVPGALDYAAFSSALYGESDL

**Q.** For “alpha-actinin-2 EF3/4 domain (from UniProt P35609)”, which Kd is on record?
**A.** 380 nM
